# Molecular target: BACE1-GFP (UniProt P56817)
# Assay: co-IP
# UniProt P56817, sequence (P56817 46-501): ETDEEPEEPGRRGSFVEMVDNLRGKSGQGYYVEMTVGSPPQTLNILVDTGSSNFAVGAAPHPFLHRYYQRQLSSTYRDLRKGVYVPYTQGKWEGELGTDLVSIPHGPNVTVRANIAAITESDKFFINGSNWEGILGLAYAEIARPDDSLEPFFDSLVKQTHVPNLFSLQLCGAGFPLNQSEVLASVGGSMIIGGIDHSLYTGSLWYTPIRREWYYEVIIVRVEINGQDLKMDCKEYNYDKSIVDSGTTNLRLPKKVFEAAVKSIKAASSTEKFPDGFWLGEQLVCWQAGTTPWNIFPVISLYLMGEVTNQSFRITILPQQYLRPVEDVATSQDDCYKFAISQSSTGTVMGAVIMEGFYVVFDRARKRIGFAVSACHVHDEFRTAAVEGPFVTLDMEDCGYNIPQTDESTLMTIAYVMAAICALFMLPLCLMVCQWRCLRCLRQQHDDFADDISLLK
substance,measurement,value
"Bin1-KR (siRNA-resistant neuronal Bin1-MYC with the LOAD mutation K358R, rs138047593) (from UniProt O08539-1 1-588) (natural protein)",percent reduction of co-immunoprecipitated Bin1 against Bin1-WT,65%

# Source: publication PMC8413894
